# Assay results from FireProtDB (doi:10.1016/j.bpj.2013.08.038).
# “And” between values parts separate entries of the source, which are not always exact repeats. Equal entries are not always repeated.
# B1: Azurin wild type, P00282 (protein)
# chain: MLRKLAAVSLLSLLSAPLLAAECSVDIQGNDQMQFNTNAITVDKSCKQFTVNLSHPGNLPKNVMGHNWVLSTAADMQGVVTDGMASGLDKDYLKPDDSRVIAHTKLIGSGEKDSVTFDVSKLKEGEQYMFFCTFPGHSALMKGTLTLK
# Conditions: Pseudomonas aeruginosa (strain ATCC 15692 / DSM 22644 / CIP 104116 / JCM 14847 / LMG 12228 / 1C / PRS 101 / PAO1), pH 7, CD, transition: 2, reversible: yes, whole UniProt chain shown; for denaturant m value / unfolding free energy: 25 °C, GdnHCl; for Tm / unfolding enthalpy (calorimetric): Thermal
protein,measurement,setting,value
B1,denaturant m value,Dextran 20 50 mg/ml,4.99 kcal/mol/M
same,denaturant m value,Dextran 20 100 mg/ml,4.99 kcal/mol/M and 4.87 kcal/mol/M
same,unfolding free energy,Dextran 20 100 mg/ml,8.71 kcal/mol
same,denaturant m value,Dextran 20 150 mg/ml,4.68 kcal/mol/M
same,denaturant m value,Dextran 20 200 mg/ml,4.66 kcal/mol/M
same,denaturant m value,Dextran20 200 mg/ml,4.66 kcal/mol/M
same,denaturant m value,Dextran 20 250 mg/ml,4.49 kcal/mol/M
same,unfolding free energy,Dextran 20 250 mg/ml,9.29 kcal/mol
same,denaturant m value,Dextran 20 300 mg/ml,4.9 kcal/mol/M
same,unfolding free energy,Dextran 20 300 mg/ml,9.65 kcal/mol
same,denaturant m value,Dextran 40 200 mg/ml,5.11 kcal/mol/M
same,unfolding free energy,Dextran 40 200 mg/ml,8.95 kcal/mol
same,denaturant m value,Dextran 40 250 mg/ml,4.08 kcal/mol/M
same,unfolding free energy,Dextran 40 250 mg/ml,9.5 kcal/mol
same,denaturant m value,Dextran 40 300 mg/ml,4.68 kcal/mol/M
same,unfolding free energy,Dextran 40 300 mg/ml,9.65 kcal/mol
same,denaturant m value,Dextran 70 100 mg/ml,4.9 kcal/mol/M
same,unfolding free energy,Dextran 70 100 mg/ml,8.59 kcal/mol
same,denaturant m value,Dextran 70 200 mg/ml,4.73 kcal/mol/M
same,unfolding free energy,Dextran 70 200 mg/ml,8.86 kcal/mol
same,denaturant m value,Dextran 70 300 mg/ml,4.68 kcal/mol/M
same,unfolding free energy,Dextran 70 300 mg/ml,9.65 kcal/mol
same,denaturant m value,Ficoll 70 50 mg/ml,5.09 kcal/mol/M
same,denaturant m value,Ficoll 70 100 mg/ml,4.97 kcal/mol/M
same,denaturant m value,Ficoll 70 150 mg/ml,4.46 kcal/mol/M
same,denaturant m value,Ficoll 70 200 mg/ml,4.92 kcal/mol/M
same,denaturant m value,Ficoll 70 250 mg/ml,4.94 kcal/mol/M
same,denaturant m value,Ficoll 70 300 mg/ml,5.16 kcal/mol/M
same,denaturant m value,,4.92 kcal/mol/M
same,Tm,Dextran 20 50 mg/ml,64 °C
same,unfolding enthalpy (calorimetric),Dextran 20 50 mg/ml,112 kcal/mol
same,Tm,Dextran 20 100 mg/ml,65 °C
same,unfolding enthalpy (calorimetric),Dextran 20 100 mg/ml,114 kcal/mol
same,Tm,Dextran 20 150 mg/ml,65 °C
same,unfolding enthalpy (calorimetric),Dextran 20 150 mg/ml,115 kcal/mol
same,Tm,Dextran 20 200 mg/ml,66 °C
same,unfolding enthalpy (calorimetric),Dextran 20 200 mg/ml,120 kcal/mol
same,Tm,Dextran20 200 mg/ml,66 °C
same,Tm,Dextran 20 250 mg/ml,67 °C
same,unfolding enthalpy (calorimetric),Dextran 20 250 mg/ml,107 kcal/mol
same,Tm,Dextran 40 200 mg/ml,66 °C
same,Tm,Dextran 70 100 mg/ml,65 °C
same,Tm,Dextran 70 200 mg/ml,68 °C
same,Tm,Ficoll 70 50 mg/ml,64 °C
same,unfolding enthalpy (calorimetric),Ficoll 70 50 mg/ml,117 kcal/mol
same,Tm,Ficoll 70 100 mg/ml,64 °C
same,unfolding enthalpy (calorimetric),Ficoll 70 100 mg/ml,117 kcal/mol
same,Tm,Ficoll 70 150 mg/ml,65 °C
same,unfolding enthalpy (calorimetric),Ficoll 70 150 mg/ml,118 kcal/mol
same,Tm,Ficoll 70 200 mg/ml,65 °C
same,unfolding enthalpy (calorimetric),Ficoll 70 200 mg/ml,117 kcal/mol
same,Tm,Ficoll 70 250 mg/ml,65 °C
same,unfolding enthalpy (calorimetric),Ficoll 70 250 mg/ml,113 kcal/mol
